Experimental data: paper PMC5758712 (2018)

Legend:
UBE2D1 = UBE2D1 (Homo sapiens (Human), UniProt P51668); assay: ITC; UbcH7 cells RING1 fragment, UbcH5A cells whole RBR
UBE2L3 = UBE2L3 (Homo sapiens (Human), UniProt P68036); assay: as above
Chain of UBE2L3 (P68036 whole entry): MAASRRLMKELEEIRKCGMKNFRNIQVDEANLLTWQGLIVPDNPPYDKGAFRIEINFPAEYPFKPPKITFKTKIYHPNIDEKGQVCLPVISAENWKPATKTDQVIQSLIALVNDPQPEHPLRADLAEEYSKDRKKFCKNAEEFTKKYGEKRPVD

Chain of UBE2D1 (P51668 whole entry, the tested form may be a part): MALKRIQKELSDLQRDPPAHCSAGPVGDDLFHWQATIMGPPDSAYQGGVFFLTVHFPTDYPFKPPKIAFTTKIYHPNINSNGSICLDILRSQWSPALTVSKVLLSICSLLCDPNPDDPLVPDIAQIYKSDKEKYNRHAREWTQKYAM

Kd (UBE2D1) [µM]	Kd (UBE2L3) [µM]	Binder
> 50	3.2	TRIAD3A (protein) not shown
> 50	0.21	HHARI (protein) TRSSAQDMPCQICYLNYPNSYFTGLECGHKFCMQCWSEYLTTKIMEEGMGQTISCPAHGCDILVDDNTVMRLITDSKVKLKYQHLITNSFVECN
